Measurements from patent US20260167699A1 (Chugai, published 2026).

B1: GpH7-A5/GpH7-B3 variant Y296_20W/GpL16-k0 (antibody, human IgG1, kappa)
heavy 1: not shown
heavy 2: not shown
light: DIVMTQSPLSLPVTPGEPASISCQASESLVHSNRNTYLHWYLQKPGQSPQLLIYKVSNRFSGVPDRFSGSGSGTDFTLKISRVEAEDVGVYYCSQNTHVPPTFGQGTKVEIERTVAAPSVFIFPPSDEQLKSGTASVVCLLNNFYPREAKVQWKVDNALQSGNSQESVTEQDSKDSTYSLSSTLTLSKADYEKHKVYACEVTHQGLSSPVTKSFNRGEC
notes: copies: 1 + 1 + 2
B2: GpH7-A5/GpH7-B3 variant H268_05P/GpL16-k0 (antibody, human IgG1, kappa)
heavy 1: not shown
heavy 2: not shown
light: B1 light
notes: He Ab; copies: 1 + 1 + 2
B3: GpH7-A5/GpH7-B3 variant E269_02A/GpL16-k0 (antibody, human IgG1, kappa)
heavy 1: not shown
heavy 2: not shown
light: B1 light
notes: He Ab; copies: 1 + 1 + 2
B4: GpH7-A5/GpH7-B3 variant A327_18N/GpL16-k0 (antibody, human IgG1, kappa)
heavy 1: not shown
heavy 2: not shown
light: B1 light
notes: He Ab; copies: 1 + 1 + 2
B5: GpH7-A5/GpH7-B3 variant A327_13S/GpL16-k0 (antibody, human IgG1, kappa)
heavy 1: not shown
heavy 2: not shown
light: B1 light
notes: He Ab; copies: 1 + 1 + 2
B6: GpH7-A5/GpH7-B3 variant A330_16H/GpL16-k0 (antibody, human IgG1, kappa)
heavy 1: not shown
heavy 2: not shown
light: B1 light
notes: He Ab; copies: 1 + 1 + 2
B7: GpH7-A5/GpH7-B3 variant D270_03V/GpL16-k0 (antibody, human IgG1, kappa)
heavy 1: not shown
heavy 2: not shown
light: B1 light
notes: He Ab; copies: 1 + 1 + 2
B8: GpH7-A5/GpH7-B3 variant A330_15Y/GpL16-k0 (antibody, human IgG1, kappa)
heavy 1: not shown
heavy 2: not shown
light: B1 light
notes: He Ab; copies: 1 + 1 + 2
B9: GpH7-A5/GpH7-B3 variant A327_09D/GpL16-k0 (antibody, human IgG1, kappa)
heavy 1: not shown
heavy 2: not shown
light: B1 light
notes: He Ab; copies: 1 + 1 + 2
B10: GpH7-A5/GpH7-B3 variant A330_10E/GpL16-k0 (antibody, human IgG1, kappa)
heavy 1: not shown
heavy 2: not shown
light: B1 light
notes: He Ab; copies: 1 + 1 + 2
B11: GpH7-A5/GpH7-B3 variant D270_07I/GpL16-k0 (antibody, human IgG1, kappa)
heavy 1: not shown
heavy 2: not shown
light: B1 light
notes: He Ab; copies: 1 + 1 + 2
B12: GpH7-A5/GpH7-B3 variant A330_18N/GpL16-k0 (antibody, human IgG1, kappa)
heavy 1: not shown
heavy 2: not shown
light: B1 light
notes: He Ab; copies: 1 + 1 + 2
B13: GpH7-A5/GpH7-B3 variant Y300_06M/GpL16-k0 (antibody, human IgG1, kappa)
heavy 1: not shown
heavy 2: not shown
light: B1 light
notes: copies: 1 + 1 + 2
B14: GpH7-A5/GpH7-B3 variant A330_20W/GpL16-k0 (antibody, human IgG1, kappa)
heavy 1: not shown
heavy 2: not shown
light: B1 light
notes: He Ab; copies: 1 + 1 + 2
B15: GpH7-A5/GpH7-B3 variant Y300_13S/GpL16-k0 (antibody, human IgG1, kappa)
heavy 1: not shown
heavy 2: not shown
light: B1 light
notes: copies: 1 + 1 + 2
B16: GpH7-A5/GpH7-B3 variant D270_14T/GpL16-k0 (antibody, human IgG1, kappa)
heavy 1: not shown
heavy 2: not shown
light: B1 light
notes: He Ab; copies: 1 + 1 + 2
B17: GpH7-A5/GpH7-B3 variant D270_18N/GpL16-k0 (antibody, human IgG1, kappa)
heavy 1: not shown
heavy 2: not shown
light: B1 light
notes: He Ab; copies: 1 + 1 + 2
B18: GpH7-A5/GpH7-B3 variant A330_07I/GpL16-k0 (antibody, human IgG1, kappa)
heavy 1: not shown
heavy 2: not shown
light: B1 light
notes: He Ab; copies: 1 + 1 + 2
B19: GpH7-A5/GpH7-B3 variant E269_01G/GpL16-k0 (antibody, human IgG1, kappa)
heavy 1: not shown
heavy 2: not shown
light: B1 light
notes: He Ab; copies: 1 + 1 + 2
B20: GpH7-A5/GpH7-B3 variant A330_08L/GpL16-k0 (antibody, human IgG1, kappa)
heavy 1: not shown
heavy 2: not shown
light: B1 light
notes: He Ab; copies: 1 + 1 + 2
B21: GpH7-A5/GpH7-B3 variant A330_14T/GpL16-k0 (antibody, human IgG1, kappa)
heavy 1: not shown
heavy 2: not shown
light: B1 light
notes: He Ab; copies: 1 + 1 + 2
B22: GpH7-A5/GpH7-B3 variant Y300_14T/GpL16-k0 (antibody, human IgG1, kappa)
heavy 1: not shown
heavy 2: not shown
light: B1 light
notes: copies: 1 + 1 + 2
B23: GpH7-A5/GpH7-B3 variant E269_03V/GpL16-k0 (antibody, human IgG1, kappa)
heavy 1: not shown
heavy 2: not shown
light: B1 light
notes: He Ab; copies: 1 + 1 + 2
B24: GpH7-A5/GpH7-B3 variant Y300_18N/GpL16-k0 (antibody, human IgG1, kappa)
heavy 1: not shown
heavy 2: not shown
light: B1 light
notes: copies: 1 + 1 + 2
B25: GpH7-A5/GpH7-B3 variant A330_04F/GpL16-k0 (antibody, human IgG1, kappa)
heavy 1: not shown
heavy 2: not shown
light: B1 light
notes: He Ab; copies: 1 + 1 + 2
B26: GpH7-A5/GpH7-B3 variant Y300_09D/GpL16-k0 (antibody, human IgG1, kappa)
heavy 1: not shown
heavy 2: not shown
light: B1 light
notes: copies: 1 + 1 + 2
B27: GpH7-A5/GpH7-B3 variant A330_12R/GpL16-k0 (antibody, human IgG1, kappa)
heavy 1: not shown
heavy 2: not shown
light: B1 light
notes: He Ab; copies: 1 + 1 + 2
B28: GpH7-A5/GpH7-B3 variant D270_19Q/GpL16-k0 (antibody, human IgG1, kappa)
heavy 1: not shown
heavy 2: not shown
light: B1 light
notes: He Ab; copies: 1 + 1 + 2
B29: GpH7-A5/GpH7-B3 variant D270_02A/GpL16-k0 (antibody, human IgG1, kappa)
heavy 1: not shown
heavy 2: not shown
light: B1 light
notes: He Ab; copies: 1 + 1 + 2
B30: GpH7-A5/GpH7-B3 variant Y300_03V/GpL16-k0 (antibody, human IgG1, kappa)
heavy 1: not shown
heavy 2: not shown
light: B1 light
notes: copies: 1 + 1 + 2
B31: GpH7-A5/GpH7-B3 variant A327_05P/GpL16-k0 (antibody, human IgG1, kappa)
heavy 1: not shown
heavy 2: not shown
light: B1 light
notes: He Ab; copies: 1 + 1 + 2
B32: GpH7-A5/GpH7-B3 variant Y300_16H/GpL16-k0 (antibody, human IgG1, kappa)
heavy 1: not shown
heavy 2: not shown
light: B1 light
notes: copies: 1 + 1 + 2
B33: GpH7-A5/GpH7-B3 variant Y300_07I/GpL16-k0 (antibody, human IgG1, kappa)
heavy 1: not shown
heavy 2: not shown
light: B1 light
notes: copies: 1 + 1 + 2
B34: GpH7-A5/GpH7-B3 variant A330_09D/GpL16-k0 (antibody, human IgG1, kappa)
heavy 1: not shown
heavy 2: not shown
light: B1 light
notes: He Ab; copies: 1 + 1 + 2
B35: GpH7-A5/GpH7-B3 variant A330_03V/GpL16-k0 (antibody, human IgG1, kappa)
heavy 1: not shown
heavy 2: not shown
light: B1 light
notes: He Ab; copies: 1 + 1 + 2
B36: GpH7-A5/GpH7-B3 variant Y300_19Q/GpL16-k0 (antibody, human IgG1, kappa)
heavy 1: not shown
heavy 2: not shown
light: B1 light
notes: copies: 1 + 1 + 2
B37: GpH7-A5/GpH7-B3 variant A327_10E/GpL16-k0 (antibody, human IgG1, kappa)
heavy 1: not shown
heavy 2: not shown
light: B1 light
notes: He Ab; copies: 1 + 1 + 2
B38: GpH7-A5/GpH7-B3 variant A327_19Q/GpL16-k0 (antibody, human IgG1, kappa)
heavy 1: not shown
heavy 2: not shown
light: B1 light
notes: He Ab; copies: 1 + 1 + 2
B39: GpH7-A5/GpH7-B3 variant D270_13S/GpL16-k0 (antibody, human IgG1, kappa)
heavy 1: not shown
heavy 2: not shown
light: B1 light
notes: He Ab; copies: 1 + 1 + 2
B40: GpH7-A5/GpH7-B3 variant D270_08L/GpL16-k0 (antibody, human IgG1, kappa)
heavy 1: not shown
heavy 2: not shown
light: B1 light
notes: He Ab; copies: 1 + 1 + 2
B41: GpH7-A5/GpH7-B3 variant A327_06M/GpL16-k0 (antibody, human IgG1, kappa)
heavy 1: not shown
heavy 2: not shown
light: B1 light
notes: He Ab; copies: 1 + 1 + 2
B42: GpH7-A5/GpH7-B3 variant Y300_04F/GpL16-k0 (antibody, human IgG1, kappa)
heavy 1: not shown
heavy 2: not shown
light: B1 light
notes: copies: 1 + 1 + 2
B43: GpH7-A5/GpH7-B3 variant D270_06M/GpL16-k0 (antibody, human IgG1, kappa)
heavy 1: not shown
heavy 2: not shown
light: B1 light
notes: He Ab; copies: 1 + 1 + 2
B44: GpH7-A5/GpH7-B3 variant A327_20W/GpL16-k0 (antibody, human IgG1, kappa)
heavy 1: not shown
heavy 2: not shown
light: B1 light
notes: He Ab; copies: 1 + 1 + 2
B45: GpH7-A5/GpH7-B3 variant A330_01G/GpL16-k0 (antibody, human IgG1, kappa)
heavy 1: not shown
heavy 2: not shown
light: B1 light
notes: He Ab; copies: 1 + 1 + 2
B46: GpH7-A5/GpH7-B3 variant Y300_08L/GpL16-k0 (antibody, human IgG1, kappa)
heavy 1: not shown
heavy 2: not shown
light: B1 light
notes: copies: 1 + 1 + 2
B47: GpH7-A5/GpH7-B3 variant Y300_10E/GpL16-k0 (antibody, human IgG1, kappa)
heavy 1: not shown
heavy 2: not shown
light: B1 light
notes: copies: 1 + 1 + 2
B48: GpH7-A5/GpH7-B3 variant A330_06M/GpL16-k0 (antibody, human IgG1, kappa)
heavy 1: not shown
heavy 2: not shown
light: B1 light
notes: He Ab; copies: 1 + 1 + 2
B49: GpH7-A5/GpH7-B3 variant Y300_11K/GpL16-k0 (antibody, human IgG1, kappa)
heavy 1: not shown
heavy 2: not shown
light: B1 light
notes: copies: 1 + 1 + 2
B50: GpH7-A5/GpH7-B3 variant A330_19Q/GpL16-k0 (antibody, human IgG1, kappa)
heavy 1: not shown
heavy 2: not shown
light: B1 light
notes: He Ab; copies: 1 + 1 + 2
B51: GpH7-A5/GpH7-B3 variant Y300_02A/GpL16-k0 (antibody, human IgG1, kappa)
heavy 1: not shown
heavy 2: not shown
light: B1 light
notes: copies: 1 + 1 + 2
B52: GpH7-A5/GpH7-B3 variant Y300_20W/GpL16-k0 (antibody, human IgG1, kappa)
heavy 1: not shown
heavy 2: not shown
light: B1 light
notes: copies: 1 + 1 + 2
B53: GpH7-A5/GpH7-B3 variant Y300_01G/GpL16-k0 (antibody, human IgG1, kappa)
heavy 1: not shown
heavy 2: not shown
light: B1 light
notes: copies: 1 + 1 + 2
B54: GpH7-A5/GpH7-B3 variant A330_11K/GpL16-k0 (antibody, human IgG1, kappa)
heavy 1: not shown
heavy 2: not shown
light: B1 light
notes: He Ab; copies: 1 + 1 + 2
B55: GpH7-A5/GpH7-B3 variant D270_10E/GpL16-k0 (antibody, human IgG1, kappa)
heavy 1: not shown
heavy 2: not shown
light: B1 light
notes: He Ab; copies: 1 + 1 + 2

Assays:
FcγRIIIa = molecular target: T1, FcγRIIIa (human, UniProt P08637 17-208); assay: SPR (Biacore);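 further: antibody variants captured on an SPR sensor chip, with FcγRIIIa passed over as analyte in HBS-EP+ buffer at 25 °C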
T1 construct: extracellular domain; also called 3a; FcγRIIIa extracellular domain
T1 sequence (P08637 other isoform, or with tags, fused parts or gaps): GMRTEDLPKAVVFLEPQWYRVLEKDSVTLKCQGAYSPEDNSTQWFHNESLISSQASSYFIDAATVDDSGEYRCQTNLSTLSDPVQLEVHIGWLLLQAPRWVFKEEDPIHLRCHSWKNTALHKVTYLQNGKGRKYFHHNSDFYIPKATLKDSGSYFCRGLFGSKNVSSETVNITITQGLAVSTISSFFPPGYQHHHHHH
Procedure: The antibody of interest was analyzed for its interaction with FcγR using a BiaCore™ T100, BiaCore™ A100, or BiaCore™ 4000 surface plasmon resonance system (GE Healthcare Japan Corp.). The running buffer used was HBS-EP+ (GE Healthcare Japan Corp.). The assay temperature was set to 25° C. The sensor chips used were: a chip prepared by immobilizing antigenic peptides onto Series S Sensor Chip CM5 (GE Healthcare Japan Corp.) by the amine coupling method; a chip prepared by immobilizing antigenic peptides biotinylated in advance onto Series S Sensor Chip SA (certified) (GE Healthcare Japan Corp.) through their interaction; a chip prepared by immobilizing protein L (ACTIGEN, BioVision, Inc.) onto Series S Sensor Chip CM5 (GE Healthcare Japan Corp.); and a chip prepared by immobilizing protein A/G (Thermo Fisher Scientific K.K.) onto Series S Sensor Chip CM5 (GE Healthcare Japan Corp.). The antibody of interest was captured onto any of these chips and allowed to interact with FcγR diluted with a running buffer. The antibody captured on the chip was washed off through the reaction of 10 mM glycine-HCl (pH 1.5) to regenerate the chip, which was repetitively used.

[1] = molecular target: T2, FcγRIIIa extracellular domain, C-terminal His tag (human, UniProt P08637 17-208); assay: SPR, binding activity relative to GpH7-A5/GpH7-B3/GpL16-k0 (=100)
T2 construct: extracellular domain; also called 3a
T2 sequence (P08637 other isoform, or with tags, fused parts or gaps): as above

Binder | He/Con 3a (FcγRIIIa) | He/Con 3a [1] [%]
B1 | 127 % of GpH7-A5/GpH7-B3/GpL16-k0 | 
B2 |  | 75.6
B3 |  | 68
B4 |  | 62.8
B5 |  | 66.7
B6 |  | 102
B7 |  | 54.6
B8 |  | 122
B9 |  | 86
B10 |  | 82.8
B11 |  | 63.1
B12 |  | 67.3
B13 | 106 % of GpH7-A5/GpH7-B3/GpL16-k0 | 
B14 |  | 102
B15 | 80.3 % of GpH7-A5/GpH7-B3/GpL16-k0 | 
B16 |  | 55.4
B17 |  | 51.2
B18 |  | 101
B19 |  | 61.6
B20 |  | 122
B21 |  | 85.8
B22 | 92.8 % of GpH7-A5/GpH7-B3/GpL16-k0 | 
B23 |  | 56
B24 | 96 % of GpH7-A5/GpH7-B3/GpL16-k0 | 
B25 |  | 144
B26 | 104 % of GpH7-A5/GpH7-B3/GpL16-k0 | 
B27 |  | 77.3
B28 |  | 74.2

Binder | He/Con 3a (FcγRIIIa) | He/Con 3a [1] [%]
B29 |  | 50.5
B30 | 83.8 % of GpH7-A5/GpH7-B3/GpL16-k0 | 
B31 |  | 61.9
B32 | 102 % of GpH7-A5/GpH7-B3/GpL16-k0 | 
B33 | 103 % of GpH7-A5/GpH7-B3/GpL16-k0 | 
B34 |  | 56.4
B35 |  | 98.8
B36 | 105 % of GpH7-A5/GpH7-B3/GpL16-k0 | 
B37 |  | 70.5
B38 |  | 54
B39 |  | 51.4
B40 |  | 65.1
B41 |  | 54
B42 | 100 % of GpH7-A5/GpH7-B3/GpL16-k0 | 
B43 |  | 60
B44 |  | 52.6
B45 |  | 87.3
B46 | 114 % of GpH7-A5/GpH7-B3/GpL16-k0 | 
B47 | 113 % of GpH7-A5/GpH7-B3/GpL16-k0 | 
B48 |  | 139
B49 | 63.7 % of GpH7-A5/GpH7-B3/GpL16-k0 | 
B50 |  | 86.3
B51 | 88.1 % of GpH7-A5/GpH7-B3/GpL16-k0 | 
B52 | 101 % of GpH7-A5/GpH7-B3/GpL16-k0 | 
B53 | 88.6 % of GpH7-A5/GpH7-B3/GpL16-k0 | 
B54 |  | 91.8
B55 |  | 112
